The values below come from publication PMC11488100, “PET imaging of CXCR4 expression using [^18F]AlF-NOTA-QHY-04 for hematologic malignancy and solid tumors” (Theranostics, 2024).

Molecules are shown by their SMILES. Bridge positions count the residues as written; N and C are the ends. Square brackets hold non-standard residues; d marks the D form. Peptide text beside a SMILES is read from it. * marks the point of attachment. NOTA = O=C(O)CN1CCN(CC(=O)O)CCN(CC(=O)*)CC1; 2Nal = N[C@@H](Cc1ccc2ccccc2c1)C(=O)O; Pen = CC(C)(S)[C@H](N)C(=O)O; 4Amb = NCc1ccc(C(=O)O)cc1; Ahx = NCCCCCC(=O)O

On the set-up of series [1]: species or system mice. The note with it: mouse, in vivo. As for the experimental part: The xenografted mice were injected with [^18F]AlF-NOTA-QHY-04 (3.70 ± 0.74 MBq) in about 150 μL saline via the tail vein. All the PET scans were performed with micro-PET/CT (IRIS PET/CT, Inviscan, France) and the radioactivity were expressed as %ID/mL. Detailed procedures for dynamic, static imaging and blocking studies are provided in the supplemental materials. Biodistribution studies were conducted using mice with xenografted A549/CXCR4 tumors with and without blocking (n = 3). The mice were sacrificed immediately after static PET/CT 1 h post injection (p.i.), then the tumors and organs were quickly collected, weighed and counted for radioactivity by a γ-counter. The γ-counter activity readings were background- and decay-corrected and represented as the percentage of injected dose per gram of tissue (%ID/g).

Series [2] is classed as physicochemical. As to conditions: pH 7.4. As for the experimental part: Synthesis of [18F]AlF-NOTA-QHY-04
Briefly, NOTA-QHY-04 was radiolabeled with [18F]F-, following procedures. 10-20
GBq [18F]F− produced by medical cyclotron (MINITRACE Cyclotron, GE, USA) was
captured with a QMA SepPak light cartridge (Waters Corporation, USA) and then eluted
with 300-500 μL saline (0.9% NaCl). Then, the saline containing [18F]F− was added to
reaction vial, followed by 6-12 μL AlCl3 (10 mM in 0.1M sodium acetate buffer, pH 4),
200 μL acetonitrile (≥ 99.9%, Sigma-Aldrich, USA), and 20-30 μL of NOTA-QHY-04
(20 mg/mL in metal-free water). The vial was heated for 10 min at 110°C. After cooling,
the reaction system was diluted with 10 mL of water and was transferred to a Qasis light
HLB cartridge (Waters Corporation, USA). The cartridge was then washed with 10 mL of
water to remove the free [18F]F−. Finally, the desired product was eluted and collected
with 0.6 mL of ethanol. The product was reconstituted in saline and passed through a 0.22
μm syringe filter (Pall Corporation, USA) into a sterile vial.
Octanol-water partition coefficient (logD)
The partition coefficient (logD) of [18F]AlF-NOTA-QHY-04 was determined in a […]
from each phase were measured for radioactivity using a γ-counter. […]
repeated three times to ensure the accuracy of the results. The logD was calculated by
dividing the average radioactivity in the 1 -octanol layer by that in the PBS layer, and the […]

For the compound `C[C@H](NC(=O)[C@H](CCCNC(=N)N)NC(=O)CCCCCNC(=O)c1ccc(CNC(=O)CN2CCN(CC(=O)O)CCN(CC(=O)O)CC2)cc1)C(=O)N[C@@H]1CSSC(C)(C)[C@@H](C(=O)O)NC(=O)[C@H](Cc2c[nH]cn2)NC(=O)[C@H](Cc2ccc3ccccc3c2)NC(=O)[C@H](CCCNC(=N)N)NC1=O` [[^18F]AlF-NOTA-QHY-04] ({NOTA-4Amb-Ahx}-RA[dC]R[2Nal]H[Pen]-OH; disulfide 3-7), in series [1], the “Tumor-to-organ ratio T/Blood” value amounted to 3.63 ± 0.56, the “Tumor-to-organ ratio T/Heart” value stood at 7.77 ± 0.60, the “Tumor-to-organ ratio T/Kidney” value turned out to be 0.23 ± 0.05 and the “Tumor-to-organ ratio T/Liver” value stood at 1.84 ± 0.17. In addition, the “Tumor-to-organ ratio T/Muscle” value in series [1] came out at 10.94 ± 5.33. In series [2], this compound had a log distribution coefficient (logD) of -2.21 ± 0.06.

By logD is commonly meant lipophilicity at a set pH, counting ionised and neutral species. Low values mean a more hydrophilic compound, high ones a more lipophilic compound.
